Patent US20110300138A1 (published 2011)
Where two headings read alike, the source gives them in different places.

Legend:
Experiment in all cases: cell-based or functional assay
[1] = target: TSHR with Lys183 mutated to Asp expressed in CHO cells (human) (UniProt P16473)
[2] = target: TSHR with Asp203 mutated to Ala expressed in CHO cells (human) (UniProt P16473)
[3] = target: TSHR with Lys183 mutated to Ala expressed in CHO cells (human) (UniProt P16473)
[4] = target: wild type TSHR (human TSH receptor) expressed in CHO cells (human) (UniProt P16473)
[5] = target: TSHR with Arg255 mutated to Ala, expressed in CHO cells (human) (UniProt P16473)
[6] = target: wild type TSHR expressed in CHO cells (human) (UniProt P16473)
[7] = target: human TSHR with Glu251 mutated to Ala expressed in CHO cells (human) (UniProt P16473)
[8] = target: wild type TSHR expressed in CHO cells (human) (UniProt P16473); remark: listed apart in the source
[9] = target: TSHR with Arg80 mutated to Ala expressed in CHO cells (human) (UniProt P16473)
[10] = target: wild type TSHR expressed in CHO cells (human) (UniProt P16473); remark: listed apart in the source
[11] = target: TSHR with Tyr82 mutated to Ala expressed in CHO cells (human) (UniProt P16473)

TSH (thyroid stimulating hormone) (ligand)
% inhibition of TSH stimulation; TSH (2), run at the end of assay [1]: 20%
Cyclic AMP produced; TSH 3 ng/mL [1]: 117 pmol/mL
Cyclic AMP produced; TSH (2) 3 ng/mL, run at the end of assay [1]: 93.4 pmol/mL
Mutated/wild type (%) of cyclic AMP produced; TSH 3 ng/mL [1]: 137%
% inhibition of TSH stimulation: TSH (2) [2]: 0%
Cyclic AMP, Mutated/wild type (%): TSH 3 ng/mL [2]: 76%
Cyclic AMP, Mutated/wild type (%): TSH (2) [2]: 87%
% inhibition of TSH stimulation, Exp 1: TSH (2) [3]: 18%
% inhibition of TSH stimulation, Exp 2: TSH (2) [3]: 23%
Cyclic AMP, Mutated/wild type (%), Exp 1: TSH 3 ng/mL [3]: 124%
Cyclic AMP, Mutated/wild type (%), Exp 1: TSH (2) [3]: 74%
Cyclic AMP, Mutated/wild type (%), Exp 2: TSH 3 ng/mL [3]: 128%
% inhibition of TSH stimulation, Exp 1: TSH (2) [4]: 0%
% inhibition of TSH stimulation, Exp 2: TSH (2) [4]: 0%
% inhibition of TSH stimulation: TSH (2) [4]: 0%
% inhibition of TSH stimulation; TSH (2), run at the end of assay [4]: 0%
Cyclic AMP produced; TSH 3 ng/mL [4]: 62.4 pmol/mL
Cyclic AMP produced; TSH (2) 3 ng/mL, run at the end of assay [4]: 68.4 pmol/mL
% inhibition of TSH stimulation; TSH (2), run at the end of assay [5]: 7%
Cyclic AMP produced; TSH 3 ng/mL [5]: 63.9 pmol/mL
Cyclic AMP produced; TSH (2) 3 ng/mL, run at the end of assay [5]: 59.6 pmol/mL
Mutated/wild type (%) of cyclic AMP produced; TSH 3 ng/mL [5]: 102%
Mutated/wild type (%) of cyclic AMP produced; TSH (2) 3 ng/mL, run at the end of assay [5]: 87%
% inhibition of TSH stimulation; TSH (2), run at the end of assay, no antibody [6]: 0%
Cyclic AMP produced; TSH 3 ng/mL alone [6]: 97.5 pmol/mL
Cyclic AMP produced; TSH (2) 3 ng/mL, run at the end of assay [6]: 104 pmol/mL
% inhibition of TSH stimulation; TSH (2), run at the end of assay, no antibody [7]: 0%
Cyclic AMP produced; TSH 3 ng/mL alone [7]: 76.1 pmol/mL
Cyclic AMP produced; TSH (2) 3 ng/mL, run at the end of assay [7]: 87.4 pmol/mL
Mutated/wild type (%) of cyclic AMP produced; TSH 3 ng/mL alone [7]: 78%
Mutated/wild type (%) of cyclic AMP produced; TSH (2) 3 ng/mL, run at the end of assay [7]: 84%
Cyclic AMP produced at 0.01 ng/mL TSH [8]: 2 pmol/mL
Cyclic AMP produced at 0.03 ng/mL TSH [8]: 3.68 pmol/mL
Cyclic AMP produced at 0.1 ng/mL TSH [8]: 9.1 pmol/mL
Cyclic AMP produced at 0.3 ng/mL TSH [8]: 22.2 pmol/mL
Cyclic AMP produced at 1 ng/mL TSH [8]: 57.5 pmol/mL
Cyclic AMP produced at 3 ng/mL TSH [8]: 58.5 pmol/mL
Cyclic AMP produced at 0.01 ng/mL TSH [9]: 4.06 pmol/mL
Cyclic AMP produced at 0.03 ng/mL TSH [9]: 6.19 pmol/mL
Cyclic AMP produced at 0.1 ng/mL TSH [9]: 13.3 pmol/mL
Cyclic AMP produced at 0.3 ng/mL TSH [9]: 27.7 pmol/mL
Cyclic AMP produced at 1 ng/mL TSH [9]: 54.5 pmol/mL
Cyclic AMP produced at 3 ng/mL TSH [9]: 57 pmol/mL
Mutated/Wild type (%) of cyclic AMP at 0.01 ng/mL TSH [9]: 203%
Mutated/Wild type (%) of cyclic AMP at 0.03 ng/mL TSH [9]: 168%
Mutated/Wild type (%) of cyclic AMP at 0.1 ng/mL TSH [9]: 146%
Mutated/Wild type (%) of cyclic AMP at 0.3 ng/mL TSH [9]: 125%
Cyclic AMP produced at 0.01 ng/mL TSH [10]: 1.01 pmol/mL
Cyclic AMP produced at 0.03 ng/mL TSH [10]: 4.39 pmol/mL
Cyclic AMP produced at 0.1 ng/mL TSH [10]: 9.67 pmol/mL
Cyclic AMP produced at 0.3 ng/mL TSH [10]: 29.8 pmol/mL
Cyclic AMP produced at 1 ng/mL TSH [10]: 53.3 pmol/mL
Cyclic AMP produced at 3 ng/mL TSH [10]: 56.6 pmol/mL
Cyclic AMP produced at 0.01 ng/mL TSH [11]: 2.6 pmol/mL
Cyclic AMP produced at 0.03 ng/mL TSH [11]: 4.1 pmol/mL
Cyclic AMP produced at 0.1 ng/mL TSH [11]: 9.64 pmol/mL
Cyclic AMP produced at 0.3 ng/mL TSH [11]: 33.7 pmol/mL
Cyclic AMP produced at 1 ng/mL TSH [11]: 50 pmol/mL
Cyclic AMP produced at 3 ng/mL TSH [11]: 61.3 pmol/mL
Mutated/Wild type (%) of cyclic AMP at 0.01 ng/mL TSH [11]: 257%
Mutated/Wild type (%) of cyclic AMP at 0.03 ng/mL TSH [11]: 93%
Mutated/Wild type (%) of cyclic AMP at 0.1 ng/mL TSH [11]: 100%
Mutated/Wild type (%) of cyclic AMP at 0.3 ng/mL TSH [11]: 113%
Mutated/Wild type (%) of cyclic AMP at 3 ng/mL TSH [11]: 108%
